For experiment [1], the target named is DS-Cav1, 505-… (design without foldon) (respiratory syncytial virus) (UniProt P03420). Nature of the experiment: ELISA; D25 ELISA on 293T transient expression culture supernatants, 96-well microtiter plate format. (In general: An ELISA detects its analyte on a solid surface through an enzyme-linked reagent.)
Experiment [2] addresses DS-Cav1 1-C, foldon removed (respiratory syncytial virus) (UniProt P03420). As to the kind of experiment: BLI; fortéBio Octet Red384; RSV F variant captured on motavizumab IgG loaded on anti-human Fc probes; Fab in solution 0.007 to 0.5 μM; 30°C; PBS + 1% BSA; 1:1 fit.
In experiment [3] the target is RSV F DS-Cav1 with C-terminal T4 fibritin foldon (respiratory syncytial virus | bacteriophage T4) (UniProt P03420). As to the kind of experiment: SEC; S200 size-exclusion chromatography of purified RSV F variants, before or after removal of the foldon with thrombin; PBS. Background: In gel filtration, larger molecules generally elute earlier.
The target in experiment [4] is RSV F DS-Cav1 with a thrombin cleavage site between RSV F and the foldon, before cleavage (respiratory syncytial virus | bacteriophage T4) (UniProt P03420). The description is as above.

Some results are limits rather than exact numbers.

The text below walks through data of publication PMC4476739.

In turn, D25 antibody as used in the ELISA yielded a D25 ELISA binding titer (OD) in experiment [1] above 2 OD.
D25 antigen binding fragment (Fab): in experiment [2], the Kd turned out to be 0.32 nM.
Take “RSV F DS-Cav1 with C-terminal T4 fibritin foldon (from UniProt P03420 26-109; P03420 137-511) (domain or fragment)”: the stoichiometry N in experiment [3] stood at 3.
On to “RSV F DS-Cav1 with a thrombin cleavage site between RSV F and the foldon, before cleavage (from UniProt P03420 26-109; P03420 137-511) (domain or fragment)”, for which the stoichiometry N in experiment [4] turned out to be 3.

Usually Kd stands for the concentration at which binding is half-saturated. As a reminder, the stoichiometry N is the number of molecules, sites or subunits per partner or assembly.
